Key:
Conditions in all cases: both partners purified
biotinylated ULBP6-02 = biotinylated ULBP6-02 (human, UniProt Q5VY80, biotin); experiment: ELISA; blocking assay: plates coated with Fc-tagged NKG2D; biotinylated ULBP5 (1.55 nmol/L) or ULBP6-02 (0.15 nmol/L) at its EC80 precomplexed with 23ME-01473 and transferred to the plates; IC50 from dose-response fit
biotinylated ULBP5 = biotinylated ULBP5 (human, UniProt Q6H3X3, biotin); experiment: as above
[1] = target: human ULBP6 (allelic isoform not stated) (Homo sapiens, ULBP6-02 allele (R26, …, UniProt Q5VY80)); experiment: SPR; 23ME-01473 and human ULBPs, as described for NKG2D (Biacore, 37°C, Protein A chip, HBS-P, ligands injected); one-to-one Langmuir model, KD = kd/ka
human ULBP1 = human ULBP1 (Homo sapiens (Human)., UniProt Q9BZM6); experiment: as above
human ULBP5 = human ULBP5 (Homo sapiens (Human)., UniProt Q6H3X3); experiment: as above
human ULBP2 = human ULBP2 (Homo sapiens (Human)., UniProt Q9BZM5); experiment: as above
human ULBP3 = human ULBP3 (Homo sapiens (Human)., UniProt Q9BZM4); experiment: as above
[2] = target: T1, human ULBP6-02 extracellular domain (residues R26-G218) (human, UniProt Q5VY80 26-218, glycosylation of residues N68 and N82 (in the crystal structure)); experiment: SPR; Biacore 8K or 8K+, 37°C; Fc-tagged human NKG2D (0.5 μg/mL) captured on Series S Sensor Protein A chip to about 25 RU; threefold serial dilutions of NKG2DLs injected at 30 μL/minute in HBS-P (0.01 mol/L HEPES pH 7.4, 0.15 mol/L NaCl, 0.005% P20); KD from steady-state fit
T1 construct: the construct of the SPR with NKG2D and of the cell assays is only called ULBP6-02 or recombinant ULBP6-02; also called sULBP6-02; sULBP6; source: recombinant, 23andMe, Inc; mammalian expression system
T1 sequence (looked up): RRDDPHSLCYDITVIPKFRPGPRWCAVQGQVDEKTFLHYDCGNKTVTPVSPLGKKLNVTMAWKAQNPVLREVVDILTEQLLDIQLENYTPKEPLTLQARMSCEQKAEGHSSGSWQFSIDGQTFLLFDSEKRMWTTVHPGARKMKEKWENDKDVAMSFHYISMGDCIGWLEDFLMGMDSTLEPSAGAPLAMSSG

Sequence of human ULBP1 (Q9BZM6 26-216): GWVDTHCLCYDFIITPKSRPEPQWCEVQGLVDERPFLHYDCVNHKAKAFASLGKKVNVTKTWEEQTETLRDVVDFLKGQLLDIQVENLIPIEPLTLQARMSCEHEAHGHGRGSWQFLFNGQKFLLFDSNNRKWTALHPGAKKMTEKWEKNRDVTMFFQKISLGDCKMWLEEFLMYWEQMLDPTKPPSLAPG
Sequence of human ULBP5 (Q6H3X3 26-218): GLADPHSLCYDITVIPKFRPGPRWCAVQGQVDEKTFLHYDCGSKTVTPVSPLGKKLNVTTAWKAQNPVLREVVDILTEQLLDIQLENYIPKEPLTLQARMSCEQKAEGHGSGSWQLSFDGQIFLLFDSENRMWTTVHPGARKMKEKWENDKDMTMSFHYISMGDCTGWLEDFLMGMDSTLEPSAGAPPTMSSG
Sequence of biotinylated ULBP5 (Q6H3X3 26-218): as above
Sequence of human ULBP3 (Q9BZM4 30-217): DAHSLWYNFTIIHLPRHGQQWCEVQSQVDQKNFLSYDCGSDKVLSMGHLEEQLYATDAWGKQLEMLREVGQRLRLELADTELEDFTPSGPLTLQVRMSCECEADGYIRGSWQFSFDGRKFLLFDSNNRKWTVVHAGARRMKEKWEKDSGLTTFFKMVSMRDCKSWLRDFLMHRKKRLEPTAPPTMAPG
Sequence of human ULBP2 (Q9BZM5 26-217): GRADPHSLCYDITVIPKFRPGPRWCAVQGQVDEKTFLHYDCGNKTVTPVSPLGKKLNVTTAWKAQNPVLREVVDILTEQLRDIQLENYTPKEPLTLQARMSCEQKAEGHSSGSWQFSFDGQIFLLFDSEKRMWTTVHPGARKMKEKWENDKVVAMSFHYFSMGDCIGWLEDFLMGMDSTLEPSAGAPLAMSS

| Binder | IC50 (biotinylated ULBP6-02) [nM] | IC50 (biotinylated ULBP5) [nM] | Kd [1] [nM] | binding result (human ULBP1) | Kd (human ULBP5) [nM] | Kd (human ULBP2) [nM] | binding result (human ULBP3) | binding result [2] |
| --- | --- | --- | --- | --- | --- | --- | --- | --- |
| 23ME-01473, humanized Fc effector-enhanced (afucosylated) anti-ULBP6/2/5 antibody (antibody, V domains shown, variable domain as in the heavy chain of the Fab m2; human IgG1 heavy constant region; as the light chain of m2; Humanized by CDR grafting from a mouse hybridoma clone; also called Fc-enhanced anti-ULBP6/2/5 antibody; source: CHO FUT8-KO, transfected, purified (Protein A, SEC Superdex 200)) VH: EVQLVESGGGLVQPGGSLRLSCAASGFTFSTYGFHWVRQAPGKGLEWVAYISSNSGTIDYADTVKGRFTISRDNAKNSLYLQMNSLRAEDTAVYYCARQGYGFDNWGQGTTVTVSS VL: DIQLTQSPSSLSASVGDRVTITCSASSRVSYMNWYQQKPGKSPKIWVYGISNLASGVPSRFSGSGSGTDFTFTISSLQPEDIATYYCQQRSSHPLTFGGGTKVEIK | 0.04 | 0.31 | 0.053 | no binding | 1.92 | 0.23 | no binding | – |
| Fc-tagged human NKG2D (Fc fusion, UniProt P26718 73-216, looked up, NK group 2D receptor (NKG2D), human; also called Fc-tagged NKG2D) IWSAVFLNSLFNQEVQIPLTESYCGPCPKNWICYKNNCYQFFDESKNWYESQASCMSQNASLLKVYSKEDQDLLKLVKSYHWMGLVHIPTNGSWQWEDGSILSPNLLTIIEMQKGDCALYASSFKGYIENCSTPNTYICMQRTV | – | – | – | – | – | – | – | binds |

From article PMC11927390 (Cancer Research Communications, 2025)
